Assays:
[1] = tested on: SVPs from patient ID1 (HBV GtD); assay: Binding of nanodisc-reconstituted NTCP-eYFP to SVPs of patient ID1 (GtD); details: 25–100 nM
Procedure: (§1) The lipids were then mixed with detergent-purified NTCP and incubated at room temperature for 5 min with gentle agitation. Next, membrane scaffold protein (MSP1D1) was added to the mixture and incubated for 20 min at room temperature. […] Bio-Beads were removed by passing through a gravity column (Bio-Rad), and the mixture was briefly spun at 4000 × g at 4 °C to remove excess lipids. […] Peak fractions containing nanodisc-reconstituted NTCP were collected and concentrated.
(§2) Subviral particles (SVPs) were isolated from plasma of two chronic HBV-infected patients by three consecutive ultracentrifugation steps according to published protocols[13]. Briefly, SVP were separated from virions using rate zonal ultracentrifugation through a sucrose density gradient. SVP-containing fractions were pooled and further purified using caesium chloride (CsCl) flotation ultracentrifugation. Pooled SVP-fractions were further purified using a second sucrose density gradient and concentrated by ultrafiltration. […] For fluorescence measurement, 100 μL HBS buffer was added to each well and the fluorescence intensity of eYFP was detected at 485 nm excitation and 535 nm emission on a fluorescence microplate reader (TECAN Life Sciences).

[2] = tested on: SVPs from patient K826 (HBV GtA); assay: Binding of nanodisc-reconstituted NTCP-eYFP to SVPs of patient K826 (GtA); details: 25–100 nM
Procedure: as §1, §2

B1: NTCP G158R: nanodisc-reconstituted NTCP-eYFP variant carrying the mutation G158R (protein)
chain: MEAHNASAPFNFTLPPNFGKRPTDLALSVILVFMLFFIMLSLGCTMEFSKIKAHLWKPKGLAIALVAQYGIMPLTAFVLGKVFRLKNIEALAILVCGCSPGGNLSNVFSLAMKGDMNLSIVMTTCSTFCALGMMPLLLYIYSRGIYDGDLKDKVPYKRIVISLVLVLIPCTIGIVLKSKRPQYMRYVIKGGMIIILLCSVAVTVLSAINVGKSIMFAMTPLLIATSSLMPFIGFLLGYVLSALFCLNGRCRRTVSMETGCQNVQLCSTILNVAFPPEVIGPLFFFPLLYMIFQLGEGLLLIAIFWCYEKFKTPKDKTKMIYTAATTEETIPGALGNGTYKGEDCSPCTA
modifications: left off: eYFP, C-terminal, kept | rho-1D4, C-terminal, state not stated
binding to GtD SVPs (in words) [1]: abolished binding to the SVPs
binding to GtA SVPs (in words) [2]: abolished binding to the SVPs

— PMC10954734, “Structure of antiviral drug bulevirtide bound to hepatitis B and D virus receptor protein NTCP” (Nature Communications, 2024)
